Measured values: US20230009539

Tested on: Purified recombinant SF2

Recombinant IKKi
in vitro kinase assay: IKKi indeed was able to phosphorylate SF2 in vitro
